# Source: paper PMC7251212
# Molecular target: recombinant TdfH (Neisseria gonorrhoeae TonB-dependent transporter, NGO0952) (Neisseria gonorrhoeae)
# Assay: ITC; Nano ITC, 25°C, 1x PBS with 0.05% DDM; TdfH (300 μl, 20 μM) in the cell, CP sample (200 μM) in 20 injections of 2.5 μl; fitted with NanoAnalyze to a two-state (multisite) model, TKO to a single-site model
substance,measurement,value
mouse calprotectin (heterodimer of mouse S100A8 and S100A9) (from UniProt P27005 1-89; P31725 1-113) (complex),"KD, higher affinity (two-state model)",0.72 µM
same,"KD, lower affinity (two-state model)",51 µM
